Measurements: the Immune Epitope Database (IEDB)
pIC50: −log10 of the molar value.

Experiments:
Assay in all cases: IEDB peptide-MHC binding, purified MHC/competitive/radioactivity; ≥ and ≤ were set here for values at or beyond the usual limits of such assays
Settings in all cases: source organism: Bordetella pertussis
HLA-B*44:03 = target: HLA-B*44:03
HLA-B*53:01 = target: HLA-B*53:01
HLA-A*02:01 = target: HLA-A*02:01
HLA-B*07:02 = target: HLA-B*07:02
HLA-B*57:01 = target: HLA-B*57:01

Sequence | pIC50 (HLA-B*44:03) | pIC50 (HLA-B*53:01) | further results
ANEANALLW | 5.04 |  | 
EVDGIIQEF | 4.80 |  | 
FDTMLGFAI |  | 5.54 | 
FTHADGWFL |  |  | pIC50 (HLA-A*02:01): 4.85
ILPILVLAL |  |  | pIC50 (HLA-A*02:01): 7.60
LSDAGHEHD |  | 4.44 | 
NPQTQLSNI |  | 4.63 | 
PGTFTAGKD |  |  | pIC50 (HLA-A*02:01): 4.20
PGTPGDLLE |  | ≤ 4.11 | 
PPRPVVAEK |  |  | pIC50 (HLA-B*07:02): 4.16
SSTPLGSLF |  |  | pIC50 (HLA-B*57:01): ≤ 4.15
VEASAITTY | 5.71 |  | 
YEDATFETY | 5.43 |  | 
